Data from the supplement of paper PMC10126150.
± gives the standard deviation of the averaged measurements.

System: ATP
Assay: switch fluorescence ratio, 500 uM ATP over buffer (Cy3 cluster intensity, sum of 5 cycles each) (fold (ratio)); higher = stronger signal-on switching upon ATP binding; sequences stand for … in TCGTCGGCAGCGTCAGATGTGTATAAGAGACAGTTTTTTTTTTTTTTTTTTTTTTTTT…TC
Conditions: aptamer strand: ATP DNA aptamer (quencher-CACCTGGGGGAGTATTGCGGAGGAAGG + anchor), 100 nM annealed; ATP concentration: 500 uM
Summary of the method: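 Switching-strand clusters labelled with Cy3 on a modified Illumina MiSeq flow-cell were annealed to 100 nM quencher-labelled ATP aptamer, imaged in selection buffer, and re-imaged after 15 min with 500 uM ATP at 22 °C. This was done over five cycles with NaOH stripping and re-annealing in between. The fluorescence ratio is summed target-cycle over summed buffer-cycle Cy3 intensity per cluster, averaged per switch-domain sequence, excluding clusters outside 100-1000 RFU.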
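Note: ATP exposure 15 min at 22 °C before imaging.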

Sequence | switch fluorescence ratio
TGTGTGTTGG | 0.993 ± 0.024
TGTGTTACGG | 0.984 ± 0.023
TGTGTTGGGT | 0.98 ± 0.015
TGTGTTTTTG | 1.01 ± 0.015
TGTTAAATGG | 0.962 ± 0.014
TGTTAATAAG | 0.9618 ± 0.0071
TGTTAATAGT | 0.981 ± 0.015
TGTTAATCAC | 1.02 ± 0.034
TGTTAATTGG | 1.02 ± 0.043
TGTTACGGTG | 1.002 ± 0.0031
TGTTACTACG | 1.0494 ± 0.00016
TGTTACTAGC | 1.03 ± 0.0034
TGTTAGCCGA | 1.02 ± 0.026
TGTTAGCCTT | 1.04 ± 0.017
TGTTAGTTTG | 0.981 ± 0.029
TGTTATATTA | 1.01 ± 0.034
TGTTATTGGG | 0.987 ± 0.042
TGTTCGCATG | 1.08 ± 0.032
TGTTCTAGGT | 1.014 ± 0.0018
TGTTCTTAAG | 0.975 ± 0.022
TGTTGAAAGG | 0.995 ± 0.046
TGTTGAAGAT | 1.005 ± 0.0076
TGTTGATA | 0.968 ± 0.016

Sequence | switch fluorescence ratio
TGTTGCCGGG | 1.0541 ± 0.00067
TGTTGCGGGC | 1 ± 0.12
TGTTGCTTCG | 1.03 ± 0.042
TGTTGGAAGG | 1.01 ± 0.014
TGTTGGCACA | 1.015 ± 0.0012
TGTTGGGGTA | 1.03 ± 0.06
TGTTGGGTGG | 0.9948 ± 0.00021
TGTTGGTAGG | 0.964 ± 0.03
TGTTGTAAAC | 1.05 ± 0.032
TGTTGTAGCT | 1.02 ± 0.031
TGTTGTGACA | 0.967 ± 0.026
TGTTGTGGGT | 1.002 ± 0.0063
TGTTGTTAAA | 0.982 ± 0.012
TGTTGTTGAT | 0.985 ± 0.036
TGTTTAAATT | 0.983 ± 0.013
TGTTTAAGCG | 0.958 ± 0.085
TGTTTAAGGT | 0.9871 ± 0.0045
TGTTTATGAG | 0.9849 ± 0.0034
TGTTTATGGT | 1.02 ± 0.017
TGTTTCAATT | 1.02 ± 0.021
TGTTTCGACG | 0.986 ± 0.038
TGTTTGATGT | 0.983 ± 0.019
TGTTTGGGAG | 1.01 ± 0.031

Sequence | switch fluorescence ratio
TGTTTGTATC | 1.01 ± 0.016
TGTTTGTGGC | 1.12 ± 0.16
TGTTTTATCG | 0.999 ± 0.028
TGTTTTATG | 1.007 ± 0.0086
TGTTTTCGCT | 0.9969 ± 0.0097
TGTTTTCGT | 1.02 ± 0.011
TGTTTTGACG | 1.07 ± 0.085
TGTTTTGAGC | 1 ± 0.037
TGTTTTTAAT | 0.99 ± 0.025
TGTTTTTGGA | 1 ± 0.026
TTAAAAAAAT | 1.73 ± 1.4
TTAAAAAACT | 1.02 ± 0.031
TTAAAAATAG | 0.976 ± 0.027
TTAAAAATGG | 1.02 ± 0.018
TTAAAAGGGT | 0.99 ± 0.013
TTAAAAGTTG | 1.051 ± 0.0097
TTAAAATATA | 0.984 ± 0.059
TTAAAATCCT | 1.12 ± 0.11
TTAAACGAGT | 0.997 ± 0.017
TTAAAGAGGG | 0.974 ± 0.054
TTAAAGCACT | 1.19 ± 0.2
TTAAAGCGGC | 0.993 ± 0.083
TTAAAGCGTG | 0.969 ± 0.011

Sequence | switch fluorescence ratio
TTAAAGGAGG | 1.02 ± 0.044
TTAAAGGCTT | 0.997 ± 0.019
TTAAAGGGA | 1.01 ± 0.022
TTAAAGGGGA | 1.04 ± 0.049
TTAAAGGGTG | 1.08 ± 0.048
TTAAAGGTTT | 1.01 ± 0.018
TTAAAGTGTT | 1.09 ± 0.16
TTAAAGTTTT | 1.01 ± 0.032
TTAAATTATT | 0.984 ± 0.024
TTAAATTCAT | 0.97175 ± 0.0009
TTAAATTTCT | 1.02 ± 0.0034
TTAAATTTTA | 1.01 ± 0.019
TTAACAATCG | 1.02 ± 0.02
TTAACATATA | 1.017 ± 0.0088
TTAACCAGTC | 1.04 ± 0.022
TTAAGAAAAG | 1.1 ± 0.065
TTAAGAAGCG | 1.01 ± 0.06
TTAAGAGACA | 1.03 ± 0.033
TTAAGAGATA | 0.989 ± 0.018
TTAAGAGGG | 0.987 ± 0.014
TTAAGAGGGG | 0.975 ± 0.042
TTAAGAGGGT | 0.997 ± 0.015
TTAAGATAGG | 1.01 ± 0.025

Sequence | switch fluorescence ratio
TTAAGATGTA | 1.01 ± 0.039
TTAAGATGTT | 0.993 ± 0.016
TTAAGCAACA | 1.13 ± 0.018
TTAAGCGGCC | 1.067 ± 0.0072
TTAAGCTGAA | 0.961 ± 0.044
TTAAGGACTT | 1.01 ± 0.011
TTAAGGATAC | 1.15 ± 0.21
TTAAGGCACG | 0.999 ± 0.017
TTAAGGCATG | 0.997 ± 0.018
TTAAGGGAAG | 1.02 ± 0.036
TTAAGGGCAT | 1 ± 0.015
TTAAGGGCGC | 1 ± 0.084
TTAAGGGGTA | 1 ± 0.019
TTAAGGTAAA | 1.01 ± 0.049
TTAAGGTCGT | 0.995 ± 0.034
TTAAGTACGC | 1.29 ± 0.014
TTAAGTCTTC | 0.964 ± 0.039
TTAAGTGGCT | 1.016 ± 0.0095
TTAAGTGGGT | 0.979 ± 0.061
TTAAGTGGTT | 0.998 ± 0.011
TTAAGTTCAT | 0.9806 ± 0.0067
TTAAGTTGCA | 1.05 ± 0.028
TTAATAAAAT | 0.966 ± 0.018

Sequence | switch fluorescence ratio
TTAATATGTA | 0.9897 ± 0.0074
TTAATATTAT | 0.978 ± 0.013
TTAATCAATG | 0.998 ± 0.029
TTAATCATAG | 1 ± 0.066
TTAATCGTTA | 1.01 ± 0.011
TTAATGACTT | 1.02 ± 0.058
TTAATGATGG | 1.012 ± 0.0075
TTAATGCAAC | 1.01 ± 0.021
TTAATGGCTA | 0.976 ± 0.021
TTAATGGGA | 0.995 ± 0.011
TTAATGGGAT | 0.987 ± 0.021
TTAATGTGAT | 1 ± 0.012
TTAATTAAAC | 1.013 ± 0.0035
TTAATTAACG | 0.995 ± 0.023
TTAATTCGTC | 0.949 ± 0.021
TTAATTGGCC | 0.992 ± 0.055
TTAATTGGGA | 0.9897 ± 0.0028
TTAATTGGGC | 1.03 ± 0.069
TTAATTTCGG | 0.991 ± 0.065
TTAATTTGAG | 0.986 ± 0.03
TTAATTTTTG | 0.996 ± 0.029
TTACAAGACG | 1.032 ± 0.0049
TTACAAGGGA | 1.09 ± 0.18

Sequence | switch fluorescence ratio
TTACAATATT | 1.07 ± 0.03
TTACAATTTG | 1.01 ± 0.039
TTACACGATA | 1.32 ± 0.15
TTACAGCTGA | 1.01 ± 0.016
TTACAGGCCT | 1.05 ± 0.056
TTACAGGGGC | 1.11 ± 0.061
TTACATAGGG | 1.019 ± 0.0079
TTACATAGTA | 1.06 ± 0.071
TTACATATGG | 1.024 ± 0.0032
TTACATTTTG | 1.01 ± 0.026
TTACCAGCTT | 1.02 ± 0.063
TTACCAGTTG | 1.04 ± 0.031
TTACCCATGG | 0.937 ± 0.064
TTACCCCGAA | 1.026 ± 0.0067
TTACCGGATA | 1.035 ± 0.0092
TTACCGGGAG | 1.05 ± 0.013
TTACCGGTAG | 0.993 ± 0.059
TTACCGTACG | 1.45 ± 0.11
TTACCGTGCC | 1.27 ± 0.059
